Laboratory results published in patent publication US20200315149.

Tests used:
cathepsin K-cleaved FXII = cathepsin K-cleaved FXII (UniProt P00748)
[1] = target: full-length coagulation factor XII purified from human plasma (UniProt P00748)
[2] = target: recombinant human pro-HGF (UniProt P14210)
recombinant human pro-HGF, sequence (P14210 32-728): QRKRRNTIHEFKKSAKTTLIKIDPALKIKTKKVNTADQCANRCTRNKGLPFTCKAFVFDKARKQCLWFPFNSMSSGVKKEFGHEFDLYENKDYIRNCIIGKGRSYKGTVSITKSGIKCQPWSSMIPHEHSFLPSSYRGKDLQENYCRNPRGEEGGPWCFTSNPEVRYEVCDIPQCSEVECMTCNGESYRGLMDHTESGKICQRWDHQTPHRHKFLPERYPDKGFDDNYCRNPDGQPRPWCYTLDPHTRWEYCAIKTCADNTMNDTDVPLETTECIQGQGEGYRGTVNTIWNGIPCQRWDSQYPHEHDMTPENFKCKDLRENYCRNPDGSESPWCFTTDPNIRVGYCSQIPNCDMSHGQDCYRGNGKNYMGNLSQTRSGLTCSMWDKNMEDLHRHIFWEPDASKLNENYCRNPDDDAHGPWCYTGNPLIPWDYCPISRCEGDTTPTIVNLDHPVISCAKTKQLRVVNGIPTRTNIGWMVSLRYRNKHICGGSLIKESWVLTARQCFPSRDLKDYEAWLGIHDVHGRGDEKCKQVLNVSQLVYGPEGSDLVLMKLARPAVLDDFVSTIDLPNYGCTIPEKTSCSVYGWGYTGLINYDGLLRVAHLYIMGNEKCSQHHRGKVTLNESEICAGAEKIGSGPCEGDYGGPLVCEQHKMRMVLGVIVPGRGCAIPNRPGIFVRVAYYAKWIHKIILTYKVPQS

plasma kallikrein, sequence (chain, as listed by the source): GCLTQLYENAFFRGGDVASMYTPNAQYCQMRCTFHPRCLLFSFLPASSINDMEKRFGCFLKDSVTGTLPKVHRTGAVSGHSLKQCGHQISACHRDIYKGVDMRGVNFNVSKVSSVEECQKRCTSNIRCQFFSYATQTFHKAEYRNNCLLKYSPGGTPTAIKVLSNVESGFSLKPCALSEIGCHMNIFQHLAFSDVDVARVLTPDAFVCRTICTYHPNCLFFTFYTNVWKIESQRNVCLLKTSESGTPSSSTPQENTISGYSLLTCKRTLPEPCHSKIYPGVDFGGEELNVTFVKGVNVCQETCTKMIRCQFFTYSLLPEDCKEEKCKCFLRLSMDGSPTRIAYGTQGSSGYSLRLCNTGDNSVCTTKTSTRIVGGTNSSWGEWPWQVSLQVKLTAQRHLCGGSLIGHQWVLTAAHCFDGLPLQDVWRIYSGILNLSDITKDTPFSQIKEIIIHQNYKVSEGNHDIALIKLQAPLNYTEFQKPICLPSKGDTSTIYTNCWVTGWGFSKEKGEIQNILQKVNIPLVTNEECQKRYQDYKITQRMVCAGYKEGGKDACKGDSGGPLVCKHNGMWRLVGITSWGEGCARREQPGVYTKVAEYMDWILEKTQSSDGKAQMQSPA
full-length coagulation factor XII purified from human plasma, sequence (P00748 20-615): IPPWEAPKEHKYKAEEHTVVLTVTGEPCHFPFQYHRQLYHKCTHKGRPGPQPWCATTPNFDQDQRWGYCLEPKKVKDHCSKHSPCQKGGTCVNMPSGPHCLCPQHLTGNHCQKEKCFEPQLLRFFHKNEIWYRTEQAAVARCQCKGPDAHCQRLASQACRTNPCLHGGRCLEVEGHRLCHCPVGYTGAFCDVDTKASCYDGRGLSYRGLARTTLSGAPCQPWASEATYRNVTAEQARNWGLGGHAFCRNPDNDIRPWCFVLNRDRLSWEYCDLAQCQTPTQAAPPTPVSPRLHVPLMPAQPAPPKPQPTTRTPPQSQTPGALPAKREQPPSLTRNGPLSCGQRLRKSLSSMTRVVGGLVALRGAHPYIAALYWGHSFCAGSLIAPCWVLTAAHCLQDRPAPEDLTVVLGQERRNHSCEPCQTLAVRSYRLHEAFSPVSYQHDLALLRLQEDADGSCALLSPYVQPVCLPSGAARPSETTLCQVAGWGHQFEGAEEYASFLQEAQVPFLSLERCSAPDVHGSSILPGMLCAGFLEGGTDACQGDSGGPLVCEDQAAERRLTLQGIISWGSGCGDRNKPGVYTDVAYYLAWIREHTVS
cathepsin K-cleaved FXII, sequence (P00748 20-615): as above

Row | Substance | FXIIa activity on chromogenic substrate S-2302 after incubation with plasma kallikrein (15 nM, 15 min) (cathepsin K-cleaved FXII) | FXIIa activity on chromogenic substrate S-2302 after incubation with plasma kallikrein (15 nM, 15 min) [1] | cleavage of pro-HGF, western blot [2]
1 | plasma kallikrein | cathepsin K-cleaved FXII had dramatically increased activity compared to full-length FXII when incubated with plasma kallikrein | Cathepsin-cleaved FXII incubated with kallikrein (15 nM) had much higher activity than full length FXII incubated with kallikrein | –
2 | thrombin | – | – | other serine proteases found in the brain such as thrombin and tissue plasminogen activator did not convert pro-HGF to HGF
